According to US7597889:

Assays:
human FcγRI (human) [1] = target: human FcγRI (human) (UniProt P12314); test: fluorescent staining of FcγRI transfectants, flow cytometry
human FcγRI (human) [2] = target: human FcγRI (human) (UniProt P12314); test: rosetting of FcγRI-bearing B2KA cells by R2R2 RBC coated with Ab; coating concentration
human FcγRI (human) [3] = target: human FcγRI (human) (UniProt P12314); test: rosetting after centrifuging RBC coated with 1 µg/ml Fog-1 G1 together with B2KA cells
FcγRIIa 131H/H (human) = FcγRIIa 131H/H (human) (UniProt P12318); test: staining of 3T6+FcγRIIa 131H/H cells with complexed Ab (summary)
UniProt P12318, sequence (P12318 34-317): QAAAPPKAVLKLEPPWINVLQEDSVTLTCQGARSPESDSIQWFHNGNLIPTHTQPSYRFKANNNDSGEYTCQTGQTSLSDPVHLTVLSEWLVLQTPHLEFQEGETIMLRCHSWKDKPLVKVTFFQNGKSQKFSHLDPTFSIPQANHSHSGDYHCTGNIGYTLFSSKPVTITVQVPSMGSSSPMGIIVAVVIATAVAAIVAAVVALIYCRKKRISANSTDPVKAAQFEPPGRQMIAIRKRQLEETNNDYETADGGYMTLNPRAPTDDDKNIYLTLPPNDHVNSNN

UniProt P12314, sequence (P12314 16-374): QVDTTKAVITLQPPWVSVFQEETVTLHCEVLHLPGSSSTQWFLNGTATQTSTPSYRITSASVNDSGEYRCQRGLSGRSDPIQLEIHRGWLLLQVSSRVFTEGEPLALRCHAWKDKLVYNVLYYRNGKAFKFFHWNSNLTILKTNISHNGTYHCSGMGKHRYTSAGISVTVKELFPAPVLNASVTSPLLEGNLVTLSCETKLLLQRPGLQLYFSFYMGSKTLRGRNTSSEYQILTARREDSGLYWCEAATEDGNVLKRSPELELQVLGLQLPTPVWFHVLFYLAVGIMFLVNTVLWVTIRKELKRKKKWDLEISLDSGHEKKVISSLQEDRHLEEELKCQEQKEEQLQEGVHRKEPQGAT

fold reduction of binding against the parent subclass (human FcγRI (human) [1]) [fold] | Substance | other results
> 10000 | CAMPATH-1 G1Δab (antibody) | –
> 10000 | CAMPATH-1 G1Δac (antibody) | –
> 10000 | CAMPATH-1 G1Δb (antibody) | –
> 10000 | CAMPATH-1 G1Δc (antibody) | –
> 10000 | CAMPATH-1 G4Δb (antibody) | –
> 10000 | CAMPATH-1 G4Δc (antibody) | –
– | Fog-1 G1 (antibody) | EC50 (human FcγRI (human) [2]): 0.1 µg/mL; percent of B2KA cells with rosettes (human FcγRI (human) [3]): 95%
– | Fog-1 G1Δa (antibody) | EC50 (human FcγRI (human) [2]): 0.1 µg/mL
> 10000 | Fog-1 G1Δab (antibody) | –
> 10000 | Fog-1 G1Δac (antibody) | –
> 10000 | Fog-1 G1Δb (antibody) | fold lower activity than IgG1 (FcγRIIa 131H/H (human)): 50 fold
> 10000 | Fog-1 G1Δc (antibody) | fold lower activity than IgG1 (FcγRIIa 131H/H (human)): 10 fold
> 10000 | Fog-1 G4Δb (antibody) | –
> 10000 | Fog-1 G4Δc (antibody) | –
